Measurements reported in paper PMC7534798.

T1: SPRTN-EQ (human, UniProt Q9H040 1-489, E112Q)
T1 sequence: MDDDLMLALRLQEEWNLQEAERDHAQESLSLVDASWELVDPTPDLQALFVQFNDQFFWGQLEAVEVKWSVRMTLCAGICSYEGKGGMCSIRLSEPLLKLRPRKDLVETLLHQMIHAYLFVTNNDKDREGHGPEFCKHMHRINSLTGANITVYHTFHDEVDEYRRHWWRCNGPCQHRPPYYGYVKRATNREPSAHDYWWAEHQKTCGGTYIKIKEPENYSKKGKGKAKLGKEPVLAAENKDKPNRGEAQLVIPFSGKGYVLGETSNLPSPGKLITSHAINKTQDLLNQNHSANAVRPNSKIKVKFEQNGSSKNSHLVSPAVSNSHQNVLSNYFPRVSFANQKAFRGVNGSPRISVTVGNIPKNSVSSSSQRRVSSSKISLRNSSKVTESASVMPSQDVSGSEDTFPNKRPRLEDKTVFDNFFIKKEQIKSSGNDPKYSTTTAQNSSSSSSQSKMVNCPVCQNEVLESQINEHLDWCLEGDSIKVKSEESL

T2: SPRTN ZBD (human, UniProt Q9H040 151-215)
T2 sequence: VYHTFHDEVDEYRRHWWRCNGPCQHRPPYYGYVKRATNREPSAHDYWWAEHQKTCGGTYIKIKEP

T3: SPRTN ZBD-BR (human, UniProt Q9H040 151-245)
T3 sequence: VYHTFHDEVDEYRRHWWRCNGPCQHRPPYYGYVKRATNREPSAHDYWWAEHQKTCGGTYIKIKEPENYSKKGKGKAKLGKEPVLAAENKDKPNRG

B1: 5' DPC ss (X1) (ssDNA)
DNA: TCCAGTGCCTTGCTAGGACATCTTTGCCCA
modifications: T1 is SH-C9-dT crosslinked to protein G; 3' phosphate
B2: 15-mer hairpin (oJS_106) (structured_DNA)
DNA: GATGTCCTAGCAAGG
B3: 3' DPC ss (X30) (ssDNA)
DNA: ACCAGTGCCTTGCTAGGACATCTTTGCCCT
modifications: T30 is SH-C9-dT crosslinked to protein G; 3' phosphate
B4: internal DPC ss (X15) (ssDNA)
DNA: ACCAGTGCCTTGCTTGGACATCTTTGCCCA
modifications: T15 is SH-C9-dT crosslinked to protein G; 3' phosphate
B5: dsDNA DPC (C3A11XA12C3 + 30-mer) (dsDNA)
DNA 1: CCCAAAAAAAAAAATAAAAAAAAAAAACCC
DNA 2: GGGTTTTTTTTTTTTATTTTTTTTTTTGGG
modifications: T15 is SH-C9-dT crosslinked to protein G; 3' phosphate on strand 1
B6: internal DPC dsDNA (X15) (dsDNA)
DNA 1: ACCAGTGCCTTGCTTGGACATCTTTGCCCA
DNA 2: TGGGCAAAGATGTCCAAGCAAGGCACTGGT
modifications: T15 is SH-C9-dT crosslinked to protein G; 3' phosphate on strand 1
B7: ss/dsDNA junction DPC (C3A11XA12C3 + 15-mer) (mixed)
DNA 1: CCCAAAAAAAAAAATAAAAAAAAAAAACCC
DNA 2: GGGTTTTTTTTTTTT
modifications: T15 is SH-C9-dT crosslinked to protein G; 3' phosphate on strand 1
B8: poly(dA) 15-mer (ssDNA)
DNA: AAAAAAAAAAAAAAA

Target: T1, SPRTN-EQ
Experiment: EMSA

Binding result, binds:
B1, B2, B3, B4, B5, B6, B7

Target: T2, SPRTN ZBD
Experiment: NMR

Binding result, binds:
B8

Target: T3, SPRTN ZBD-BR
Experiment: NMR

Binding result, binds:
B8
